Reference: the domain aggregation screens of Martell et al. (2025)

Experiment: soluble fraction after stress (log2 fold change); higher = more stays soluble; pooled small domains, quantitative proteomics
Conditions: stress: pH 4
Summary of the method: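 Aggregation propensity is read out as the fold change in how much of each domain remains soluble after acid stress. The custom small-domain libraries were pooled, held at pH 4 and analysed with high-throughput quantitative proteomics. On the log2 scale used, higher values mean more of the domain stayed soluble.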

## HMEPFEQLLDRITSQTGKEPEEVVARMNELITERFDGNIRPEAALVIVAKRDNIQFMDLLDQLKQALL
  soluble fraction (log2): -0.907

## HMSIAKIIGDRIRAYRNQKGWSQEYLAEKADVHHTYIGQLERGEKNATIESISKIAGALGVSLSRLFEN
  soluble fraction (log2): 0.192

## HMQNREQNILDGKSILDKELKRVGLLNQSAAIMAQEMKFNSQDDLFAALGSGATRIGQIINHLQKQS
  soluble fraction (log2): 0.0793

## HMRQGHLDLLRQIHALPPSTREVVYLRAFGGLSFREIGDVLGRTETWARVTFYRGKEALRKG
  soluble fraction (log2): -0.275

## HMKEIKRLVELSPGRYFIEGATNIRVFGINGSLLLDTKGETVDLSDLAKGVYLLKTDGVTYKVL
  soluble fraction (log2): -0.216

## HMESGLPLPRFVSLGADEVNLRTGPGLRYPVAWVFVRKALPVEIVAEFEQWRRVRDFEGAEGWVHKAML
  soluble fraction (log2): -0.527

## HMAEVALFVNGSDVNLRSGPGQESTRVIGSLNLGDEVRIKSQNGQWREVYVPKTRQVGWVAHWLLSEAPP
  soluble fraction (log2): -0.527

## HMKISIDNPSVLLDKLATLFPDTSKNKLRKMLTEGRIYVNDNIEHRAKRELINGDTVKILDKTTSKE
  soluble fraction (log2): -0.0228

## HMSAPAKKPKIKVDLSKVHAGTIVRHKGYGLGQVKGIDGAIIVVTFDGVDKKFQFPGGFENGFLFLTED
  soluble fraction (log2): -1.21

## HMNDPFVILGVSKDASQSEILEAYKQKRAYYQERVFDEGDEGAQAARMLTQLDDAYQQAMELSHES
  soluble fraction (log2): 0.17

## HMSQLTVGTVVTGNASLQTQGLKLPSFASGSRPASPNIGQMIWNSSDAKAQIWNGSEWDDVG
  soluble fraction (log2): ≥ 0.43

## HMGLLEMPSERERQVLVLIAEGLSNKEIAARLYLTEGTVKNHAHSLYAKLNVTTRTLAIARARQLGI
  soluble fraction (log2): -0.731

## HMEKGWYKLGQDSYYVDDDGKIHKGWLELDGKKYYFDQEGKMVTGTVNIDGKDYTFNEKGELYVS
  soluble fraction (log2): -0.029

## HMAMDYTVVHSDRRTIAIQIQRDGRVVVRAPYAATAEDIRRVVDSHRDWVEKTVRRQQEQLAAS
  soluble fraction (log2): 0.238

## HMTSPNPLIRSTTPGLETNKKGGIIVDENEMSTRENVFAGGDAVTGAATVILAMGAGKKAAAAIDAKLQN
  soluble fraction (log2): 0.22

## HMNHLLYPNPANNFIWIKNSTSNTAVIYNLQGVMSKVEVSEEGKIDISRFSPGLYMIKQGERIYKFTIA
  soluble fraction (log2): -0.358

## HMGNYRVIKWGMQGDDVKLMQQMLINRGYVLSATGKYASRTLKAIMAFQEANGLKADGIVGKRTWNKLL
  soluble fraction (log2): -0.134

## HMPDAGQRRYLELVTALAGARSLTIDDLERRAIRFAEWGNGYSGRTARQFIDTLLQDRGVAEEL
  soluble fraction (log2): -0.935

## HMDNWAALLSEREVQVSRLVANGASNKEIADHLAITERTVKAHLTAVFEKLGVRDRLQLSLRVNGL
  soluble fraction (log2): -1.64

## HMKYYIYQGVGASGELTKIAEVTDQKTYTVTGLQAKTTYRFAVSSYNGLRESTKSNIVTVTT
  soluble fraction (log2): 0.22

## HMALRFMAYGRINGTNVHFRTGASASTASLGRYSRGTEFGVYDKIGGWYRVRLLSTGQEGYVYSRYLTLTG
  soluble fraction (log2): -0.0807

## HMSDEIQLQFIQISIFKDHPWADMQIKDMNIIPDLLIVMILRDGERIIPNGNTRIMPGDMVIITAMSANT
  soluble fraction (log2): -1.7

## HMKDGMRVYITYHDSEEEPEKPIGDGTTKGWHTNSTASVVWISQKVAESADLGIWGDPIRIKGEA
  soluble fraction (log2): -0.217

## HMQNSMTTTPDVVGKTGTFAEQMLKAANLNVQFAGDSSGKVVAQDVEAGTSAAYGTIITLTMDS
  soluble fraction (log2): 0.25

## HMGQGAASAPLRELGVDPVSEKQMVLKDGRFGPYVTDGETNASLRKGDEVETITDERASELLQMRRDAGPS
  soluble fraction (log2): 0.0347

## HMDYNLTKNQKIVFNLLQNSGEPLKAYTILESLKREGLKSPLQVYRALDKLVELGIIHKIESQNSFI
  soluble fraction (log2): 0.0373

## HMNNGAEIGAEIRSLRKARGLTLEDLAAKIGRSVGYISQVERGISPLTIPNLKAIAEVLGVGINWFFRGEA
  soluble fraction (log2): 0.228

## HMGFALLIAIERTGNTTYFVKLTLIKKGSDSDVLKDSFSVSQGDLVGTATYDSVIANRIREKTAAMWQKAT
  soluble fraction (log2): -0.73

## HMGGEKLPAPVAGTLLRYSVAEGARVSEGQTVIILESMKMELEINTPKAGVIHFLAAVGAQVAEGDTLAEI
  soluble fraction (log2): -0.171

## HMSRELVILGNSMLNNALKAFHVSPASIKKKHWDKLILDYHLESKNNILIDIALGKRINVMVAHQLTSIID
  soluble fraction (log2): ≥ 0.43

## HMKPSNLTSDERTQLLAQLKTAMGSDQYNQLRRQVGEEKLLEYVLDNVPGIQEEILGNRAVQENIDLH
  soluble fraction (log2): -0.266

## HMTTQTTKYVNTTAGLNVRTGPSTSYAKIVTLSYGQSVNVLSTSNGWSKINYNGSTGYVSSQYLQSTKPS
  soluble fraction (log2): 0.0265

## HMESLGEKIKNIRISNNLKQSELADILHISEKTISSWENNRTTPDLNMIYKISNYFKKSFYYLISDDYI
  soluble fraction (log2): -0.283

## HMSYDAINGYEPSDLRGSLTLEQTASMLNLPLTDVYARLGLPANYPSGATLKDGAADMGMGLSDFKHQLF
  soluble fraction (log2): 0.0723

## HMQRDELRYDQFLTALQNKEFTQLNVRFDDYTYLVTGTFQSGRPFSTRGPVSEEFIRLIESSGVQVTWLPM
  soluble fraction (log2): -1.28

## HMSSIVLTARSGRAALAYRVKSIGVDLSKDQLDLVYKTFLGFADKKKEIIDTDIPQILKASGI
  soluble fraction (log2): -0.265

## HMTMQQGTISRLNHSRGFGFLTTPDGEDLFFHRTNVHETPFARLQVGDRVTYDVQVTPRGTRADKVQLNM
  soluble fraction (log2): -0.222

## HMNTLSPVRILAILDGRSSMAEWQLAEELGVSIDNLSEILNKMSTDGQIRLVPSEDGRMVVP
  soluble fraction (log2): -0.0347

## HMHGESISVPDLRGQKMERMPAFLADKHLQFKVIDSLFDLEKNPGTVLEQDPAPNSKVKEGRTIYLTVNAQ
  soluble fraction (log2): -0.118

## HMTATVPDSEAGIRLDVYAAALLGVSRAGAQKYIESGAVRVNGLPAPKNRRLESGDVIEAVLPDPE
  soluble fraction (log2): ≥ 0.43

## HMFEATGKITGTEVSFRRKPTTDSERILFFDINTEFRVIGINNGWYKGVYQGKTGYVRSDFVEIVGG
  soluble fraction (log2): -0.448

## HMDQTIFFGQQKAINNLSTDAGLSATELDEYLKKRYKRPLYQLTQAEGAEIIKGFQDGALSRSSILDYTK
  soluble fraction (log2): 0.22

## HMDIDGVSENGRLILAALDKEALDFDTLAAETGIQESRLRTELTLLEIRKLIMKLPGQRYRLI
  soluble fraction (log2): 0.28

## HMHPTDMKLTARLEEGAQFVRTQQLSKAIEIFTEVIKLDQNWAEAWNKRATVFYMMGKFKQSQEDIDKVLA
  soluble fraction (log2): -0.12

## HMNIDGLIGKKALVTADIDNVNSKGQIKINGLEWTARSVDDEPIPMGTEVEITAISGVKAIVRKG
  soluble fraction (log2): 0.309

## HMHSLGDQVFETIKELIVNNTYQPGELLQIDKLAAEFGVSTTPVREALLRLEGLGLVDIERNKAAVVT
  soluble fraction (log2): -0.352

## HMEFLDQAFLHETMRKVNQDATINLLKKVYEVPQKFIGRKVTVQYDPEDLSRVYVKDLSFPEPVTVYPV
  soluble fraction (log2): 0.12

## HMKSIRIPFILTEGPNSQKITIDIDSDEEFRIGDVFDEDDKLWSINQILISGDRKAKMAIASEVTSISALR
  soluble fraction (log2): -0.797

## HMFPDLTGDELRIVDLLNTANDLQVNIITAKTNLPISRVTSLLFQLEMKGVVKPLAGGMYHLLG
  soluble fraction (log2): -0.117

## HMSFKQARFMMDAANGKALAWLYSHAEVLDRKDQGENIEIHVMISPADLSRFVNAFGYQPVQS
  soluble fraction (log2): -0.0667

## HMIKEGDLVFIWNPKKGDSFLIKVQPGQSQGTHFGQIKHSEIMEHNYGEGIRTPKGQVYYLLRPTLGEFTR
  soluble fraction (log2): -0.38

## HMNNEISINGNKIYFNKNISKVFIYDISGKLIKHKNNFNNNFIDLSEFNSAFYIIKALDINENYTTKKIFL
  soluble fraction (log2): -0.597

## HMLHQSLVVNAASGRVTVSLDIVPDEDNPYAVLRATDDSDEPLAQVRVAPSFKLNRASALAWIESQFARP
  soluble fraction (log2): -0.128

## HMNEDTEDIKNINSLVNKLTENNFDIIRDSIVKLINKEHLIPYIIETIIEKSILHHRYVHLYVSILKE
  soluble fraction (log2): -0.119

## HMSQVHYAVLFKNASAAEATEIVTYARETLGVQDIKINANGDILVPEDKVEEMRVSMSIAGFPK
  soluble fraction (log2): -0.349

## HMSREEFLAGLEEALAGEVPASVIRENLNYYNSYISQEMAKGRTVDEIVDEIGEPRIVARTIIDSSEAAGE
  soluble fraction (log2): -0.246

## HMDQHERQQLLIHIAGGEREALAELYQRTRSAVYGLALSYLKNAHDAQDLTRDVYVQVWDRA
  soluble fraction (log2): 0.0408

## HMSDLLYAHPTEKGFQLVNVTQKVVMVILKTAAPNVYTVKGKNAIVFKEGNSWFYSENHNKKLLNIK
  soluble fraction (log2): -0.1

## HMESAQLIINVAGKVSNPGVYQLPQGSRVVDAIEAAGKQLKGVDISDINLARVLVDGEQILVGGV
  soluble fraction (log2): -1.35

## HMNPHIQFWSLLRRQPDYNSAYKDELKAMFVWQWSGEKTESLNEFYKTDPYRYKSMLMDMRNRAL
  soluble fraction (log2): -0.354

## HMSQTVKYVNTTSGLNMRTGPATSYAKITTIAYGQSVNVLSTSNGWSKINYSGSTGYVSSQYLQSKKPS
  soluble fraction (log2): 0.183

## HMQLYSLEVLSKKKVDLIENNKNLINLYFNKENGEYSYRLIFKNRKELYQVKDTLDNSSDVVSIKLDL
  soluble fraction (log2): -0.181

## HMSLLLTPREASVWASEYLGKKVTSNNIIYLLNYGKIANHSTDLKENLIDKNELKIYYDSTIKSQKH
  soluble fraction (log2): 0.00309

## HMESRDRVRQASAAGYRFMSTMAGHEPGFEEASRALFAGDQTAFEARITAWPVDVQTHLKKILAEAFTT
  soluble fraction (log2): -0.939

## HMVYLPGEEIPLKIIQEGKESGQGVGYLEDGTMVVVENGRRYLNQEVLVQVTKILQTNAGRLIFAVP
  soluble fraction (log2): 0.11

## HMLGITEGSLVRVIRSPNFGKIGTVAELPAELRMMESETMVRIAIVEIEGTNFEIPRSNLEVLET
  soluble fraction (log2): -1.28

## HMGMTDEELNREEERVVAELEAKDEEELTIYNEEDLTFEETLDLPEGSLMRDRENGMIYLKVLDIWMPY
  soluble fraction (log2): -0.831

## HMGLQDLFLNSLRKSKTPVTMFLVKGVKLQGVVTWFDNFSVLLRRDGMSQLVYKHSISTIMP
  soluble fraction (log2): 0.22

## HMGMTNRIKELRKAKGYRQEDLAAALGVSRQTIIAVENNKYNPTLELAMKLARHLQTTVEELFQL
  soluble fraction (log2): -0.885

## HMPLDISDDSKAVLKLLKNDSNELNTVKSASGLSNKKWDKTIKELTKNKIVSVSKTEDGLYIHLI
  soluble fraction (log2): 0.336

## HMLADEPTGALDSKTSVQIMALLTEIAQDRLVIMVTHNPELADEYATRIVNLRDGVISDDSDPFNP
  soluble fraction (log2): -0.289

## HMNVPATAEAYEALLADAESVGKSLWGHEAKRFAAEQALLSAGLREVIQVDPDKARELALRLRGLLDEYRG
  soluble fraction (log2): -1.24

## HMSTPVPIEGQPTENLNLRDQPSTSGKILTTIPKGKTVTILSEKNANGWYKVSYNGKTGYVSGSYFKVTK
  soluble fraction (log2): -0.14

## HMRHTRQRQAVLDALVRSGQALSPQDLLGQAKSAVPSLNLSTVYRQIKGLQDAGQIVRVELPGQPPRFEM
  soluble fraction (log2): -0.0347

## HMAVDAASSTIGKNVEVSVANEKGDYENFNGKVKSASIKDGVVYLELELKDTGEIKEVPYSSLTKIT
  soluble fraction (log2): 0.355
